Values belong to the molecule of their own block, whether it stands above or below them.
What was measured:
Assay in all cases: SEC
[1] = target: mCD5-His (extracellular region of mouse CD5 fused to a His tag) (mouse)
[2] = target: hrCD5-His (human CD5 domain 1 and rat CD5 domains 2 and 3, His tag) (human | rat)
SEC = target: the molecule itself

- stoichiometry N [1]: 2
Molecule: mCD5-His (extracellular region of mouse CD5 fused to a His tag) (domain or fragment)

- stoichiometry N [2]: 2
Molecule: hrCD5-His (human CD5 domain 1 and rat CD5 domains 2 and 3, His tag)

B1: hCD5-His (extracellular region of human CD5 fused to a His tag) (domain or fragment, UniProt P06127 25-372, looked up)
chain: RLSWYDPDFQARLTRSNSKCQGQLEVYLKDGWHMVCSQSWGRSSKQWEDPSQASKVCQRLNCGVPLSLGPFLVTYTPQSSIICYGQLGSFSNCSHSRNDMCHSLGLTCLEPQKTTPPTTRPPPTTTPEPTAPPRLQLVAQSGGQHCAGVVEFYSGSLGGTISYEAQDKTQDLENFLCNNLQCGSFLKHLPETEAGRAQDPGEPREHQPLPIQWKIQNSSCTSLEHCFRKIKPQKSGRVLALLCSGFQPKVQSRLVGGSSICEGTVEVRQGAQWAALCDSSSARSSLRWEEVCREQQCGSVNSYRVLDAGDPTSRGLFCPHQKLSQCHELWERNSYCKKVFVTCQDPNP
- stoichiometry N (SEC): 2

Source: paper PMC2996635 (Journal of immunology (Baltimore, Md. : 1950), 2010)
